Experimental findings from US20240392024A1 (SHANGHAI CELGEN BIO PHARMACEUTICAL, published 2024) are described below.

The target in experiment [1] is T1, TNFR2-His (Sino Biological, 10417-H08H, NP_001057.1 Met1-Asp257, with multi-histidine tag expressed on … (human, UniProt P20333 23-257)).
T1 construct: range 1-257; Bought protein; also called recombinant human TNFR2 protein; TNFR2-His antigen; not shown: C-terminal multi-histidine tag
T1 sequence (looked up): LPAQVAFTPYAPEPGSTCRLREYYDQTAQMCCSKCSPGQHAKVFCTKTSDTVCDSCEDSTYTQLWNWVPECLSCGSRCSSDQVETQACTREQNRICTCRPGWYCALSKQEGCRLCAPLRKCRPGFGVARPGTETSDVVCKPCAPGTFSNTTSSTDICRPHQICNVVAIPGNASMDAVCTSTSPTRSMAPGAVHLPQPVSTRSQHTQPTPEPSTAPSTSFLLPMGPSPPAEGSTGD
Briefly: ELISA, coated TNFR2-His. The procedure, abridged: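 EC50 was obtained from a dilution series in an ELISA format. Blocked plates carried recombinant human TNFR2 with a C-terminal His tag, and serially diluted antibodies were incubated on them. An enzyme-labelled anti-IgG secondary antibody followed. Plates were then developed with TMB and read on a microplate reader.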

Experiment [2] concerns the target T2, human TNFR2 on the cell membrane (human, UniProt P20333 23-461).
T2 construct: whole, on cells; One molecule for all cell formats; also called TNFR2-CHO cells; CHO-TNFR2
T2 sequence (looked up): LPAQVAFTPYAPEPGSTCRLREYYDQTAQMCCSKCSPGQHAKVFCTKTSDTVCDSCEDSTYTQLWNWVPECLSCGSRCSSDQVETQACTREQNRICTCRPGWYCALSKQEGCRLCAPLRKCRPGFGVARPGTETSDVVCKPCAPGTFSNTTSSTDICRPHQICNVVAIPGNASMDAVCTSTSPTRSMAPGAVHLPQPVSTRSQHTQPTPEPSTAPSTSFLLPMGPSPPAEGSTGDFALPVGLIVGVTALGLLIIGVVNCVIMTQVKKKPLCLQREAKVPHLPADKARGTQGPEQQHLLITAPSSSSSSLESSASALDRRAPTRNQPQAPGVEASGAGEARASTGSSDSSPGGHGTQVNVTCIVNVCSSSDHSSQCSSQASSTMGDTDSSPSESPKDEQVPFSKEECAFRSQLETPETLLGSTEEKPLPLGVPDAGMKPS
Briefly: flow cytometry, Jurkat-TNFR2 cells. As to the method: (§1) Purified human-mouse monoclonal antibodies against TNFR2 were co-cultured with TNFR2 positive Jurkat cells (Jurkat cells were transfected with pcDNA3.4-TNFR2 plasmid using conventional methods, and after screening, stable and highly expressed TNFR2 Jurkat cell lines were obtained) and stained. The antibody binding intensity was analyzed by flow cytometry. The specific steps are as follows: Jurkat-TNFR2 was counted, centrifuged, resuspended, then added to a 96-deep well plate, and the supernatant was discarded. The anti-TNFR2 antibody was gradient diluted, and added to the 96-deep well plate, After incubation and wash, the secondary antibody FITC-anti-human IgG (Abcam: 6854) was added, and the samples were detected using Beckman CytoFLEX.

Experiment [3] has as its target T1, TNFR2-His (Sino Biological, 10417-H08H, …). Description: ELISA, plate coated with TNFR2-His. As for the experimental part:
To determine whether the human-mouse chimeric TNFR2 monoclonal antibody of the present invention can bind to recombinant human TNFR2 protein, in vitro ELISA test was conducted. Similar to the method described above, The plate was coated with TNFR2-His (Sino Biological, 10417-H08H, Assessment #NP_001057.1.Met1-Asp257, with multi-histidine tag expressed on C-terminus) antigens, and blocked with BSA, then added with gradient diluted human-mouse chimeric TNFR2 monoclonal antibodies for incubation. Then, secondary antibody Ap-anit-human IgG Fc (JacksonImmuno Research, 109-055-098) was added for incubation After TMB development, ELISA reading was performed.

Experiment [4] addresses T2, human TNFR2 on the cell membrane. Description: flow cytometry on Jurkat-TNFR2 cells. As to the method: as §1
Experiment [5] deals with T1, TNFR2-His (Sino Biological, 10417-H08H, …). Description: BLI, antibody captured on AHC probe, TNFR2 in solution. As for the experimental part:
The GATOR (ProbeLife) detection instrument and AHC (Pall, 185064), Human antibody Capture probe were used to detect the dissociation constant (Kd) of human-mouse chimeric TNFR2 monoclonal antibody.
The human-mouse chimeric TNFR2 monoclonal antibodies were diluted to 50 nM in binding buffer (Q buffer [PBS (10 mM PH7.4)+0.02% Tween 20+0.2% BSA). The recombinant human TNFR2 protein was diluted in Q buffer with a 2-fold gradient starting from the highest concentration of 100 nM. The kinetic association assay was conducted by placing the antibody capture sensor in the continuously diluted antigen solutions mentioned above. The Octet Data Acquisition software was pened and the New Kinetics Experiment-Basic Kinetics mode was selected.

Experiment [6] has as its target T3, WT.
T3 construct: also called T cells of wild-type (WT) mice; mouse TNFR2 on the cell membrane
T3 chain: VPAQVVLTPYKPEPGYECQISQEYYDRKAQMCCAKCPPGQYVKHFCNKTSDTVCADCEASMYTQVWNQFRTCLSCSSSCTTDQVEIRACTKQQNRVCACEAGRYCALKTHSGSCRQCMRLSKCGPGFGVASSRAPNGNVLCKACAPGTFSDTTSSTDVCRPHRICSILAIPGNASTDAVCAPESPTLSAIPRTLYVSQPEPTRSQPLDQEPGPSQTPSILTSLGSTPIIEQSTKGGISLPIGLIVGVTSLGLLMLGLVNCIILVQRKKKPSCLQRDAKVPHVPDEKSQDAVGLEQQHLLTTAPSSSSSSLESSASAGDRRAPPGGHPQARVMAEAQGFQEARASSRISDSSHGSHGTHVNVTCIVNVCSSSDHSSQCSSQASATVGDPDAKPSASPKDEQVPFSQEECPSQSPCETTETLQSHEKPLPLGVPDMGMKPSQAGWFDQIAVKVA
Description: flow cytometry on ConA-stimulated spleen cells of WT mice, mCD3+ T cells. As to the method: (§2) The cells were stained again with Cy-3 anti-human IgG and FITC anti-mCD3 (BD, 555274) after washing, under the same incubation conditions. After washing, the detection was performed.

Experiment [7] concerns the target T2, human TNFR2 on the cell membrane. Description: flow cytometry on ConA-stimulated spleen cells of hTNFR2-KI mice, mCD3+ T cells. As to the method:
as §2

B1: human-mouse chimeric TNFR2 monoclonal antibody 12E12-hFc (antibody, V domains shown)
VH: EVQLQQSGAELVKPGASVKLSCTVSGFNIKDFYIHWVKQRPEQGLEWIGRVDPEDGNTEYAPNFQDRATMTTDTSSNTAYLQLSSLTSVDTAVYYCSTWDGFSYFDYWGLGTTLTVSS
VL: QAVVTQESALTTSPGETVTLTCRSSTGPVTTNNYANWVQEKPDHLFTGLIGGTNDRAPGVPARFSGSLIGDKTALTITGTQTEDEAVYFCALWYRNHWVFGGGTKLTVL
notes: Mouse V regions of clone 12E12 with human constant regions; also called human-mouse chimeric 12E12 antibody
Turning to B1, the EC50 in experiment [1] was 0.265 nM; in experiment [2], 0.012 µg/mL; in experiment [3] it was 0.0396 µg/mL; in experiment [4] it was 0.0123 µg/mL. The same molecule had a Kd in experiment [5] of 3.9 nM. Besides, in experiment [5], the koff worked out at 0.00304 s⁻¹. In addition, the kon in experiment [5] came out at 780000 M⁻¹ s⁻¹. Further, the binding result in experiment [6] was “no binding”. Also, the “percent of cells in the upper right quadrant (Q2-UR, mCD3+ and anti-hIgG+)” value in experiment [6] stood at 0.83%; in experiment [7], 46.2%.

B2: human-mouse chimeric TNFR2 monoclonal antibody 27F6-hFc (antibody, V domains shown)
VH: EVQLQQSGTVLARPGASVKMSCKTSGYTFTSYWMHWVKQRPGQGLEWIGTIYPGNSDTSYNQKFKGKAKLTAVTSASTAYMELNSLTNEDSAVFYCTRENLLLRSYFFDYWGQGTTLTVSS
VL: DIVMTQSPASLAVSLGQRATISCKASQSVDYDGDSYLNWYQQKPGQPPKLLIYAASNLPSGIPARFSGSGSGTDFTLNIHPVEEEDAATYYCQQSNEDPRTFGGGTKLEIK
notes: Mouse V regions of clone 27F6 with human constant regions
On to B2, for which the EC50 in experiment [1] was determined as 0.278 nM; in experiment [2], 0.036 µg/mL; in experiment [3] it was 0.0415 µg/mL; in experiment [4], 0.0357 µg/mL. In addition, the Kd in experiment [5] worked out at 9.38 nM. Also, the koff in experiment [5] was 0.00761 s⁻¹. In experiment [5], this molecule returned a kon of 811000 M⁻¹ s⁻¹. The binding result in experiment [6] is “no binding”. Also, the “percent of cells in the upper right quadrant (Q2-UR, mCD3+ and anti-hIgG+)” value was 1.04% in experiment [6] and 36% in experiment [7].
